Laboratory results published in publication PMC10063446 (Nature Immunology, 2023).

Key:
[1] = target: T1, recombinant wild-type SARS-CoV-2 S trimer (ELISA antigen) (SARS-CoV-2 wild-type, UniProt P0DTC2); assay: ELISA; details: one partner purified
T1 construct: also called S^WT trimer; recombinant S protein; source: bought: Sino Biological

[2] = target: T2, wild-type SARS-CoV-2 S protein expressed on the surface of HEK 293T cells (SARS-CoV-2 wild-type (MN908947.3), UniProt P0DTC2); assay: flow cytometry on cells; details: one partner purified
T2 construct: also called S^WT protein

[3] = target: SARS-CoV-2 RBD immobilised on the CM5 chip (SARS-CoV-2 wild-type (assumed)); assay: SPR; details: both partners purified
[4] = target: T3, recombinant RBD protein of wild-type SARS-CoV-2 (ELISA antigen) (SARS-CoV-2 wild-type, UniProt P0DTC2); assay: ELISA; details: one partner purified
T3 construct: No catalogue number printed

B1: P5-1H1 (full IgG1) (antibody, V domains shown)
VH: EVQLVESGGGLIQPGGSLRLSCAASGITVSSNYMTWVRQPPGKGLEWVSVIYSGGSTFYADPVKGRFTISRDNSRNTLYLQMNSLRAEDTAVYYCARDLQVYGMDVWGQGTTVTVSS
VL: DIQLTQSPSFLSASVGDRVTITCRASQGISNFLAWYQQKPGKAPKLLIYAASTLQGGVPSTFSGSGSGTEFTLTISSLQPEDFATYYCQHLNDYPLFGGGTRVEIK
[1]
  binding result: binds
[2]
  binding result: binds

B2: P2-1B1 (full IgG1) (antibody, V domains shown)
VH: QVQLVQSGAEVKRPGSSVKVSCKASGGTFSSYAISWVRQAPGQGPEWMGGIIPIFGTPHNAQKFQGRVTITADESTSTAYMELSSLRSEDTAMYYCSRTKGDILTGYTDYYFDSWGQGTLVTVSS
VL: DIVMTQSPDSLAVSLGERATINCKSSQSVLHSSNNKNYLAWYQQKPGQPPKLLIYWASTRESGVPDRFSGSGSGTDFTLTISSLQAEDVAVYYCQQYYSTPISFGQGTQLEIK
[1]
  binding result: binds

B3: P5S-3B11 (full IgG1) (antibody, V domains shown)
VH: EVQLVESGGGLVQPGGSLRISCAASGLTFTGYWMNWVRQAPGKGLEWVANIKEDGSEKYYVDSVKGRFTISRDNAKNSLYLQMNSLRVEDTAVYYCARLRWLRGNFDHWGQGTLVTVSS
VL: NFMLTQPHSVSESPGKTVTISCTGSNGYIANNYVQWYQQRPGSVPTVVIYEDNQRPSGVPDRFSGSIDSSSNSASLIISGLKTEDEADYYCQSYDTPNVVFGGGTKLTVL
notes: IgG1; group 2
[3]
  binding result: binds

B4: P5-1C8 (full IgG1) (antibody, V domains shown)
VH: EVQLVESGGGLIQPGGSLRLSCAASEIIVSRNYMNWVRQAPGKGLEWVSVIYSGGSTFYADSVKGRFTISRDNSENTLYLQMNSLRAEDTAVYYCARGYGDYYFDYWGRGTLVTVSS
VL: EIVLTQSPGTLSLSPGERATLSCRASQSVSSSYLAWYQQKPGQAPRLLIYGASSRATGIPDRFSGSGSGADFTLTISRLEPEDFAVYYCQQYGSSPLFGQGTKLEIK
[1]
  binding result: binds

B5: P2S-2E9 (full IgG1) (antibody, V domains shown)
VH: QITLKESGPTLVKPTQTLTLTCTFSGFSLSTSGVGVGWIRQPPGKALEWLALIYWDDDKRYSPSLKSRLTITKDTSKNQVVLTMTNMDPVDTATYYCARHRIGYIFDYWGQGTLVTVSS
VL: QSALTQPASVSGSPGQSITISCTGTSSDVGDFNYVSWYQQHPGKAPKLMIYDVTKRPSGVSNRFSGSKSGNTASLTISGLQAEDEADYCCSSYTTSSISFGGGTKLTVL
[3]
  binding result: binds
[4]
  binding result: binds
[1]
  binding result: binds
[2]
  binding result: binds
